According to patent US20100248359A1 (Chugai, published 2010):
Numbering of substitutions follows the chain as printed. Names may count otherwise. Blank lines part the entries; values can stand above or below the binder they belong to.

Assays:
[1] = molecular target: T1, soluble form of GPC3 core protein (human, UniProt P51654 25-563); test: ELISA on plate coated with soluble GPC3 core protein; antibody from COS7 culture supernatant
T1 construct: not shown: His tag added to the C-terminus

[2] = molecular target: T1, soluble form of GPC3 core protein; test: ELISA on plate coated with soluble GPC3 core protein; antibody from COS7 culture supernatant [lower right panel]
[3] = molecular target: T1, soluble form of GPC3 core protein; test: ELISA on plate coated with soluble GPC3 core protein; antibody from COS7 culture supernatant [middle right panel]
[4] = molecular target: T1, soluble form of GPC3 core protein; test: ELISA on plate coated with soluble GPC3 core protein; antibody from COS7 culture supernatant [upper left panel]
[5] = molecular target: T1, soluble form of GPC3 core protein; test: competitive ELISA on coated soluble GPC3 core protein; labelled competitor biotin-L9G11;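 further: Biotin-labelled antibody added as 10 µL at 10 µg/mL for 1 h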
[6] = molecular target: T1, soluble form of GPC3 core protein; test: competitive ELISA on coated soluble GPC3 core protein; labelled competitor biotin-M18D4;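 further: Biotin-labelled antibody added as 10 µL at 10 µg/mL for 1 h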
[7] = molecular target: T2, full-length human GPC3 (human, UniProt P51654 25-554); test: BIACORE; the form of GPC3 used is not given
T2 construct: On CHO (DXB11) or SK-HEP-1 (SK-03) transfectants; also used here for the GPC3 on the hepatoma lines HepG2 and HuH-7; also called human glypican 3
T2 sequence (P51654 25-554 limits assumed): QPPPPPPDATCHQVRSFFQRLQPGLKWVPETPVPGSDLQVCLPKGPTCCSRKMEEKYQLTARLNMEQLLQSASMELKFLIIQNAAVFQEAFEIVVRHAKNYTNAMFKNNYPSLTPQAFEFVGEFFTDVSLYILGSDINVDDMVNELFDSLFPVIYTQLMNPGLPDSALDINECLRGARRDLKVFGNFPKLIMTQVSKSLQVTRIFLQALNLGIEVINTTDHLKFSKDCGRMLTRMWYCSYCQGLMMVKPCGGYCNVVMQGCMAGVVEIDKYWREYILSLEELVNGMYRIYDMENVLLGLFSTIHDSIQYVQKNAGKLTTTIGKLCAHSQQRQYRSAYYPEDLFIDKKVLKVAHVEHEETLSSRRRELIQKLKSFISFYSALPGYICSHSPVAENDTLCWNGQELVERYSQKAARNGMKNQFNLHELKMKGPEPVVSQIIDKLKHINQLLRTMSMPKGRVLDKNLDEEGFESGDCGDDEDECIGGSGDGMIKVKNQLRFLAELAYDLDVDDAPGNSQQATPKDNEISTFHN

[8] = molecular target: T3, secreted form of GPC3 in the culture supernatant of HepG2 (human, UniProt P51654 25-358, limits assumed); test: immunoprecipitation of the culture supernatant of HepG2, detection of secreted GPC3
T3 construct: also called secretory GPC3; secreted form of GPC3 of 40 kDa
T3 sequence (P51654 25-358 limits assumed): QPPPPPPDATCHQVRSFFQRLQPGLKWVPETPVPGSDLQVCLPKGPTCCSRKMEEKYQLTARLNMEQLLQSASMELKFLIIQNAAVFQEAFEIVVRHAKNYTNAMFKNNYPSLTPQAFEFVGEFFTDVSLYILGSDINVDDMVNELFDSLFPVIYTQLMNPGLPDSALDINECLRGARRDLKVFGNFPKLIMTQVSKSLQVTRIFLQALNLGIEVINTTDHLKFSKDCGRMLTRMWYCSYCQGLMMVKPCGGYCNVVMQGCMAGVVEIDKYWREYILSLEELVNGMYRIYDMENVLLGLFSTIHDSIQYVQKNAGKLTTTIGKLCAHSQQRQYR

[9] = molecular target: T2, full-length human GPC3; test: flow cytometry, antibody at 5 µg/mL, CHO cells expressing human GPC3 (column CHO/human GPC3)
[10] = molecular target: T1, soluble form of GPC3 core protein; test: competitive ELISA on coated soluble GPC3 core protein; labelled competitor biotin-M5B9;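 further: Biotin-labelled antibody added as 10 µL at 10 µg/mL for 1 h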
[11] = molecular target: T1, soluble form of GPC3 core protein; test: competitive ELISA on coated soluble GPC3 core protein; labelled competitor biotin-M3C11;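 further: Biotin-labelled antibody added as 10 µL at 10 µg/mL for 1 h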
[12] = molecular target: T1, soluble form of GPC3 core protein; test: competitive ELISA on coated soluble GPC3 core protein; labelled competitor biotin-M11F1;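 further: Biotin-labelled antibody added as 10 µL at 10 µg/mL for 1 h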
[13] = molecular target: T2, full-length human GPC3; test: flow cytometry, antibody at 5 µg/mL, HepG2 cells
[14] = molecular target: T4, GC-3 (GST fusion of GPC3 Ala524 to Lys563) (human, UniProt P51654 524-563); test: Western blotting of GST-fusion proteins, reducing SDS-PAGE
T4 construct: not shown: GST as encoded by pGEX-4T-3 (Amersham), N-terminal to the GPC3 peptide
T4 chain: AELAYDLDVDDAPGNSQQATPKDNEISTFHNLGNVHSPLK

[15] = molecular target: T1, soluble form of GPC3 core protein; test: competitive ELISA on coated soluble GPC3 core protein; labelled competitor biotin-M1E7;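 further: Biotin-labelled antibody added as 10 µL at 10 µg/mL for 1 h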
[16] = molecular target: T1, soluble form of GPC3 core protein; test: competitive ELISA on coated soluble GPC3 core protein; labelled competitor biotin-M6B1;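 further: Biotin-labelled antibody added as 10 µL at 10 µg/mL for 1 h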
[17] = molecular target: T1, soluble form of GPC3 core protein; test: competitive ELISA on coated soluble GPC3 core protein; labelled competitor biotin-M10D2;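 further: Biotin-labelled antibody added as 10 µL at 10 µg/mL for 1 h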
[18] = molecular target: T1, soluble form of GPC3 core protein; test: ELISA on plate coated with soluble GPC3 core protein
[19] = molecular target: T2, full-length human GPC3; test: flow cytometry, antibody at 5 µg/mL, HuH-7 cells
[20] = molecular target: T5, GC-2 (GST fusion of GPC3 Gly510 to Lys563) (human, UniProt P51654 510-563); test: Western blotting of GST-fusion proteins, reducing SDS-PAGE
T5 construct: not shown: GST as encoded by pGEX-4T-3 (Amersham), N-terminal to the GPC3 peptide
T5 sequence: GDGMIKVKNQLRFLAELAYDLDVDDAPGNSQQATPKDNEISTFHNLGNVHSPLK

[21] = molecular target: T6, GC-1 (GST fusion of GPC3 Ser495 to Lys563) (human, UniProt P51654 495-563); test: as above
T6 construct: Made in E. coli DH5alpha; not shown: GST as encoded by pGEX-4T-3 (Amersham), N-terminal to the GPC3 peptide
T6 sequence: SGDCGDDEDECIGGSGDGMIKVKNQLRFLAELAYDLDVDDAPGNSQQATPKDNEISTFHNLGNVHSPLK

[22] = molecular target: T7, C-terminal fragment of 30 kDa of the soluble form of GPC3 core protein (human, UniProt P51654 375-563); test: Western blotting of soluble GPC3 core protein after reducing SDS-PAGE
T7 construct: the shorter limit is written; also called C-terminal side; band of about 30 kDa; not shown: His tag at the C-terminus
T7 chain: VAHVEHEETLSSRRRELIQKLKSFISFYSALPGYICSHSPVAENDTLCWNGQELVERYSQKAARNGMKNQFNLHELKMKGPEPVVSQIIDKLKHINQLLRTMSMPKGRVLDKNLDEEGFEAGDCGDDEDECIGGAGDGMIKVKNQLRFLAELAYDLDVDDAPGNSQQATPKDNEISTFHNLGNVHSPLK

B1: humanized GC33 H chain ver.k / L chain ver.a (antibody, V domains shown)
VH: QVQLVQSGAEVKKPGASVKVSCKASGYTFTDYEMHWVRQAPGQGLEWMGALDPKTGDTAYSQKFKGRVTLTADKSTSTAYMELSSLTSEDTAVYYCTRFYSYTYWGQGTLVTVSS
VL: DVVMTQSPLSLPVTPGEPASISCRSSQSLVHSNGNTYLHWYLQKPGQSPQLLIYKVSNRFSGVPDRFSGSGSGTDFTLKISRVEAEDVGVYYCSQNTHVPPTFGQGTKLEIK
notes: Parent of the N33 and G34 L chain variants
- EC50 (read off the curve) [1]: ~0.02 µg/mL

B2: modified humanized GC33 (H chain ver.k, L chain G34R) (antibody, human IgG1, V domains shown)
VH: B1 VH
VL: B1 VL with G34R
notes: COS7 supernatant; human IgG1/kappa
- EC50 (read off the curve) [2]: ~0.02 µg/mL

B3: modified humanized GC33 (H chain ver.k, L chain G34K) (antibody, human IgG1, V domains shown)
VH: B1 VH
VL: B1 VL with G34K
notes: as for B2
- EC50 (read off the curve) [3]: ~0.02 µg/mL

B5: modified humanized GC33 (H chain ver.k, L chain G34D) (antibody, human IgG1, V domains shown)
VH: B1 VH
VL: B1 VL with G34D
notes: as for B2
- EC50 (read off the curve) [4]: ~0.02 µg/mL

B6: modified humanized GC33 (H chain ver.k, L chain G34I) (antibody, human IgG1, V domains shown)
VH: B1 VH
VL: B1 VL with G34I
notes: as for B2
- EC50 (read off the curve) [3]: ~0.02 µg/mL

B9: M1E7 (antibody, human IgG1, kappa, V domains shown)
VH: EVQLQQSGPELVKPGASVKISCKASGYSFTGYYMHWVKQSPEKSLEWIGEINPSTGGTTYNQKFKAKATLTVDKSSSTAYMQLKSLTSEDSAVYYCARRGGLTGTSFFAYWGQGTLVTVSA
VL: DVVMTQTPLSLSVTIGQPASISCKSSQSLLYSNGKTYLNWLQQRPGQAPKHLMYQVSKLDPGIPDRFSGSGSETDFTLKISRVEAEDLGVYYCLQSTYYPLTFGAGTKLELKR
notes: Mouse monoclonal from hybridoma; also called M1E07
- Inhibition of the binding of indicated biotin-Mab to sGPC3 core (%) [5]: 38%
- Inhibition of the binding of indicated biotin-Mab to sGPC3 core (%) [6]: 9%
- Kd [7]: 2.8 nM
- koff [7]: 0.000427 s⁻¹
- kon [7]: 150000 M⁻¹ s⁻¹
- binding result [8]: no binding
- FACS X-mode value of the histogram [9]: 28
- Inhibition of the binding of indicated biotin-Mab to sGPC3 core (%) [10]: 6.4%
- Inhibition of the binding of indicated biotin-Mab to sGPC3 core (%) [11]: 26%
- Inhibition of the binding of indicated biotin-Mab to sGPC3 core (%) [12]: 14.3%
- FACS X-mode value of the histogram [13]: 16
- binding result [14]: no binding
- Inhibition of the binding of indicated biotin-Mab to sGPC3 core (%) [15]: 83.9%
- Inhibition of the binding of indicated biotin-Mab to sGPC3 core (%) [16]: 7.7%
- Inhibition of the binding of indicated biotin-Mab to sGPC3 core (%) [17]: 14.8%
- EC50 [18]: 0.96 nM
- FACS X-mode value of the histogram [19]: 5

B10: L9G11 (antibody, V domains shown)
VH: QVQLQQPGAELVKPGASVKLSCKASGYTFTSYWMHWVKQRPGQGLEWIGTIDPSDSETHYNLQFKDTATLTVDKSSSTAYMQLSSLTSEDSAVYYCIRGAFYSSYSYWAWFAYWGQGTLVTVSA
VL: DIVLTQSPTSLAVSLGQSVTISCRASESVEYYGTSLMQWYQQKPGQPPKLLIYGASNVESGVPARFSGSGSGTDFSLNIHPVEEDDIAMYFCQQSRKVPYTFGSGTKLEIK
notes: Mouse monoclonal from hybridoma
- Inhibition of the binding of indicated biotin-Mab to sGPC3 core (%) [5]: 92.2%
- Inhibition of the binding of indicated biotin-Mab to sGPC3 core (%) [6]: 15.7%
- Kd [7]: 10.7 nM
- koff [7]: 0.0014 s⁻¹
- kon [7]: 130000 M⁻¹ s⁻¹
- FACS X-mode value of the histogram [9]: 29
- Inhibition of the binding of indicated biotin-Mab to sGPC3 core (%) [10]: 6.4%
- Inhibition of the binding of indicated biotin-Mab to sGPC3 core (%) [11]: 2.1%
- Inhibition of the binding of indicated biotin-Mab to sGPC3 core (%) [12]: 6%
- FACS X-mode value of the histogram [13]: 26
- Inhibition of the binding of indicated biotin-Mab to sGPC3 core (%) [15]: -4.8%
- Inhibition of the binding of indicated biotin-Mab to sGPC3 core (%) [16]: 10.1%
- Inhibition of the binding of indicated biotin-Mab to sGPC3 core (%) [17]: 1.2%
- EC50 [18]: 0.62 nM
- FACS X-mode value of the histogram [19]: 4
- binding result [22]: no binding

The remaining lines, values ahead:

- EC50 (read off the curve) [4]: ~0.02 µg/mL
B4: modified humanized GC33 (H chain ver.k, L chain G34A) (antibody, human IgG1, V domains shown)
VH: B1 VH
VL: B1 VL with G34A
notes: as for B2

- Inhibition of the binding of indicated biotin-Mab to sGPC3 core (%) [5]: 20.9%
- Inhibition of the binding of indicated biotin-Mab to sGPC3 core (%) [6]: -1.5%
- Kd [7]: 0.2 nM
- koff [7]: 3.5e-05 s⁻¹
- kon [7]: 140000 M⁻¹ s⁻¹
- binding result [8]: no binding
- FACS X-mode value of the histogram [9]: 9
- Inhibition of the binding of indicated biotin-Mab to sGPC3 core (%) [10]: 5.4%
- Inhibition of the binding of indicated biotin-Mab to sGPC3 core (%) [11]: 2%
- Inhibition of the binding of indicated biotin-Mab to sGPC3 core (%) [12]: 81.8%
- FACS X-mode value of the histogram [13]: 4
- binding result [14]: binds
- Inhibition of the binding of indicated biotin-Mab to sGPC3 core (%) [15]: 3.9%
- Inhibition of the binding of indicated biotin-Mab to sGPC3 core (%) [16]: 5.6%
- Inhibition of the binding of indicated biotin-Mab to sGPC3 core (%) [17]: 24.6%
- EC50 [18]: 2.17 nM
- FACS X-mode value of the histogram [19]: 2
B7: M11F1 (antibody, V domains shown)
VH: QVTLKESGPGILQPSQTLSLTCSFSGFSLSIYGMGVGWIRQPSGKGLEWLANIWWNDDKYYNSALKSRLTISKDTSNNQVFLKISSVDTADTATYYCAQIGYFYFDYWGQGTTLTVSS
VL: DVVMTQTPLSLPVSLGDQASISCRSSQSLVHSNGNTYLHWYLQKPGQSPKLLIYKVSNRFSGVPDRFSGSGSGTDFTLKISRVEAEDLGVYFCSQSTHVPWTFGGGTKLEIK
notes: as for B10

- binding result [20]: binds
- binding result [21]: binds
- binding result [14]: binds
B8: M3B8 (antibody, V domains shown)
VH: QVTLKESGPGILQPSQTLSLTCSFSGFSLSTYGMGVGWIRQPSGMGLEWLANIWWYDAKYYNSDLKSRLTISKDTSNNQVFLKISSVDTSDTATYYCAQMGLAWFAYWGQGTLVTVSA
VL: DIKMTQSPSSMYASLGERVTITCKASQDINNYLSWFQQKPGKSPKTLIYRANRLVDGVPSRFSGSGSGQDYSLTISSLEYEDMGINYCLQCDEFPPWTFGGGTKLEIK
notes: as for B10
